# Measured values taken from patent publication US7429563B2, “Peptide carrier for drug delivery” (The Board of Trustees of the University of Illinois, priority 2004, dated 2008).
# Entries after “also recorded” stand apart in the source; their conditions may differ.
# Legend:
# [1] = tested on: albumin; test: Albumin binding of ELKSLNPRWDGE, albumin from a variety of sources; conditions: e.g., human, porcine, murine
# [2] = tested on: BLMVEC monolayers; test: Transendothelial 125I-MPO permeability, Transwell filters; assay type: cell-based, bovine
# Protocol: FIG. 2A-FIG. 2C: Albumin increases the binding of ^125I-MPO to endothelial cell surface. The binding of ^125I-MPO to BLMVEC was measured as described in Example 1. Results are shown as mean SEM of three separate experiments made in a triplicate binding assay. *, indicates difference from control (p<0.05); **, (p<0.001) different from control (i.e., binding was determined in the presence of 5 mg/ml γ-globulin). […] FIG. 2B: Effects of albumin on time course transendothelial transport of MPO. BLMVEC grown on microporous Transwell filters were used to determine transendothelial transport of MPO as described in Example 1. […] The transendothelial ^125I-MPO clearance rate was calculated as described (24, 27). *, indicates difference from control or CD-treated group (p<0.001). […] Lung preparations were perfused at 37° C. with Krebs-albumin solutions at the indicated concentrations; MPO PS (μl/min/g wet lung) was determined by perfusing ^125I-MPO for 10 min, and removing vascular tracer with Krebs for 6 min and bound tracer with cold (12° C.) acetate buffer (pH 4.5) for 3 min. ^125I-MPO PS increased 2-fold upon increasing [BSA] from 0.05 to 0.4 g/100 ml. […]
# Transendotlielial ^125I-MPO permeability: Transendothelial permeability of ^125I-MPO in BLMVEC monolayers was determined using Transwell filter units (24, 27). […]
# [3] = tested on: BLMVEC; test: MPO uptake and localization by confocal immunostaining; assay type: cell-based, bovine; conditions: for MPO staining (localization): 30 min 37° C.
# Protocol: FIG. 3A-FIG. 3E: Albumin induces the endocytosis of MPO in endothelial cells. BLMVEC grown on glass coverslips were incubated with buffer C for 12 h. Cells were then incubated with buffer C containing 25 nM MPO alone or in combination with Alexa-594 BSA (50 μg/ml) and unlabeled BSA (1 mg/ml) for 30 min at 37° C. Cells were washed 3×, fixed with 4% PFA in HBSS for 30 min at 22° C., and blocked with 5% goat serum in HBBS containing 0.1% Triton X-100 (blocking buffer) for 30 min at 22° C. After washing, the cells were incubated with anti-MPO Ab diluted (1:1000) in blocking buffer at 4° C. overnight. After washing 2×, cells were incubated with Alexa-488 labeled (green) secondary Ab in blocking buffer for 60 min at 4° C. Confocal images were obtained as described in Methods. […] There was a marked co-localization of […] (green) and Alexa-594 BSA (red) in merged image (yellow; right). FIG. 3B: Albumin induces the co-localization of MPO with cholera toxin subunit B (CTB) in endothelial cells. BLMVEC were grown as described in FIG. 3A. Cells were incubated with Alexa 488-CTB; (20 ug/ml), MPO (25 nM), and BSA (1 mg/ml) in buffer C for 30 min at 37° C. After this, cells were washed, fixed, permeabilized, and stained with anti-MPO Ab and AlexaA594 labeled secondary antibody. Cells were visualized by confocal microscopy after mounting. Confocal images of CTB (green-left panel) and anti-MPO Ab staining (red-middle panel) in vesicles are shown. […] There was marked merging in vesicles in the YZ projection image (far left panel) and single frame (X-Y) or single line (Y-Z and X-Z) images (left panel) observed in the presence of albumin compared to the green CTB-positive/MPO negative vesicles observed in the absence albumin (right and far right panels). […]
# Immunostaining: Cellular localization of MPO, albumin, CTB (a caveolae marker), and caveolin-1 was determined by confocal microscopy (Minshall et al., J. Cell Biol., 150:1057-1069 (2000); John et al., Am. J. Physiol. Lung Cell Mol. Physiol., 284:L187-L196 (2003)). […] MPO uptake in BLMVEC was determined in the presence or absence of albumin or CTB. […]
# [4] = biological target: T1, HSA (Homo sapiens, UniProt P02768); test: 125I-HSA binding to MPO peptides immobilized on nitrocellulose (dot-blot); conditions: immobilized peptide
# T1 construct: purchased Sigma (St. Louis, Mo.)
# Protocol: ^125I-labeling and binding of proteins: HSA and MPO were labeled with ^125I using IODO-GEN reagent from Pierce (Rockford, Ill.). ^125I HSA binding to the MPO peptides was determined by dot-blot analysis. Peptides were immobilized on nitrocellulose membranes and non-specific binding was blocked with bovine γ-globulin (2 mg/ml in PBS) for 1 h at 22° C. Membranes were washed 2× with PBS and incubated with ^125I-labeled HSA (0.3 pM) for 2 h at 22° C. Membranes were then washed 4× with PBS containing 0.05% Tween-20 (PBST) and autoradiography was performed. In some experiments, the membranes were directly counted to determine the membrane-associated radioactivity.
# Peptides were immobilized on nitrocellulose membranes and then incubated with 1 ml of 0.3 μM ^125I-HSA in PBS for 2 h. Other details were described in Example 1. Non-specific binding was determined by incubating membranes with ^125I-HSA in the absence of any peptides. Results are shown mean±S.E. for three separate experiments made in triplicate.
# [5] = tested on: BLMVEC; test: 125I-MPO binding to endothelial cell surface; assay type: cell-based, bovine; conditions: increasing BSA 1-50 mg/ml in binding buffer; 4° C., 1 h
# Protocol: (§1) FIG. 2A-FIG. 2C: Albumin increases the binding of ^125I-MPO to endothelial cell surface. The binding of ^125I-MPO to BLMVEC was measured as described in Example 1. Results are shown as mean SEM of three separate experiments made in a triplicate binding assay. *, indicates difference from control (p<0.05); **, (p<0.001) different from control (i.e., binding was determined in the presence of 5 mg/ml γ-globulin). […] FIG. 2B: Effects of albumin on time course transendothelial transport of MPO. BLMVEC grown on microporous Transwell filters were used to determine transendothelial transport of MPO as described in Example 1. To study the methyl-B-cyclodextrin (CD) effect, luminal chamber was incubated with 5.0 mM CD for 20 min prior to measuring ^125I-MPO permeability. […] The transendothelial ^125I-MPO clearance rate was calculated as described (24, 27). *, indicates difference from control or CD-treated group (p<0.001). […] Lung preparations were perfused at 37° C. with Krebs-albumin solutions at the indicated concentrations; MPO PS (μl/min/g wet lung) was determined by perfusing ^125I-MPO for 10 min, and removing vascular tracer with Krebs for 6 min and bound tracer with cold (12° C.) acetate buffer (pH 4.5) for 3 min. ^125I-MPO PS increased 2-fold upon increasing [BSA] from 0.05 to 0.4 g/100 ml. […]
# [6] = tested on: lung microvessels; test: Pulmonary vascular 125I-MPO permeability x surface area (PS), isolated-perfused lung; set-up: species or system rat
# Protocol: as §1
molecule,measurement,setting,value
ELKSLNPRWDGE,ability to bind albumin from a variety of sources,[1],able to bind to albumin from any of a variety of sources
"methyl-β-cyclodextrin [CD, reference compound]",effect on transport of 125I-MPO in the presence of albumin,[2]; CD 5.0 mM for 20 min,prevented the transport
same,effect on albumin-induced MPO uptake,[3]; 5.0 mM CD for 20 min at 37° C.,prevented the albumin-induced MPO uptake
"GLATELGSLNPGWDGEGLYQEAGGIVGAMV [MPO-MT-peptide, mutant of MPO-WT-peptide, K and R replaced with G]",binding to HSA (in words),[4],failed to bind
EARKIV,binding to HSA (in words),[4],no binding; also recorded: failed to bind
"MPO: MPO purified from human PMNs (Calbiochem), 125I-labeled for binding and permeability (protein, listed as Homo sapiens, 125I label) MGVPFFSSLRCMVDLGPCWAGGLTAEMKLLLALAGLLAILATPQPSEGAAPAVLGEVDTSLVLSSMEEAKQLVDKAYKERRESIKQRLRSGSASPMELLSYFKQPVAATRTAVRAADYLHVALDLLERKLRSLWRRPFNVTDVLTPAQLNVLSKSSGCAYQDVGVTCPEQDKYRTITGMCNNRRSPTLGASNRAFVRWLPAEYEDGFSLPYGWTPGVKRNGFPVALARAVSNEIVRFPTDQLTPDQERSLMFMQWGQLLDHDLDFTPEPAARASFVTGVNCETSCVQQPPCFPLKIPPNDPRIKNQADCIPFFRSCPACPGSNITIRNQINALTSFVDASMVYGSEEPLARNLRNMSNQLGLLAVNQRFQDNGRALLPFDNLHDDPCLLTNRSARIPCFLAGDTRSSEMPELTSMHTLLLREHNRLATELKSLNPRWDGERLYQEARKIVGAMVQIITYRDYLPLVLGPTAMRKYLPTYRSYNDSVDPRIANVFTNAFRYGHTLIQPFMFRLDNRYQPMEPNPRVPLSRVFFASWRVVLEGGIDPILRGLMATPAKLNRQNQIAVDEIRERLFEQVMRIGLDLPALNMQRSRDHGLPGYNAWRRFCGLPQPETVGQLGTVLRNLKLARKLMEQYGTPNNIDIWMGGVSEPLKRKGRVGPLLACIIGTQFRKLRDGDRFWWENEGVFSMQQRQALAQISLPRIICDNTGITTVSKNNIFMSNSYPRDFVNCSTLPALNLASWREAS",binding of 125I-MPO to the endothelial cell surface,[5],increased the binding
same,increase of transendothelial 125I-MPO permeability,"[2]; in the presence of albumin, compared to γ-globulin (5 mg/ml)",more than 2 fold
same,MPO PS at higher BSA concentrations,[6]; BSA 0.25 and 0.4 g/100 ml,did not increase further
same,increase in 125I-MPO PS,[6]; upon increasing [BSA] from 0.05 to 0.4 g/100 ml,2 fold
same,MPO staining (localization),[3]; 25 nM MPO plus 1 mg/ml BSA,markedly co-localized with albumin-containing vesicles
same,MPO staining (localization),"[3]; 25 nM MPO, absence of albumin",observed only on the cell surface
